Data: the nanobody polyreactivity screen of Harvey et al. (2022)

Test: yeast display, Sf9 membrane polyspecificity reagent, FACS + sequencing; frameworks hold sequencing errors
Method in brief: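 In a synthetic yeast display library (Saccharomyces cerevisiae BJ5465), nanobody expression was induced with galactose for 36–48 hours. FACS gates were set low and high (top ~1%) using anti-HA fluorescence for expression and streptavidin fluorescence for binding of the Sf9 membrane reagent. Each polyreactivity label is drawn from the gate of origin.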

| Sequence | polyreactivity (PSR sort gate) |
| --- | --- |
| QVQLVESGGGLVQAGGRLRLSCAASGSIFGANTMVWYRQAPGKERELVAAISSGGNTYYADSVKGRFTISRDNAKNTVYLQMNSLKPEDTAVYYCNAQTRYRYQYGYLGGTGYNYWGQGTQVTVSS | low polyreactivity |
| QVQLVESGGGLVQAGVSLRLSCAASGIILRYYVMGWYRQAPGKERELVAAITSRGGSTYYADSVKGRFTISRDNAKNTVYLQMNSLKPEDTAVYYCAAGYRNVNTFDYWGQGTQVTVSS | high polyreactivity |
| QVQLVESGGGLVQAGGSLRLSCAASGSIFFWYTMGWYRQAPGKERELVATITGSGSSTTYADSVKGRFTISRDYAKNTVYLQMNSLKPEDTAVYYCAAADIIDHSFPYDYWGQGTQVTVSS | low polyreactivity |
| QVQLVESGGGLVQAGGSLRLSCAASGSTFQGYAMGWYRQAPGKERELVAAISWNGGSTYYADSVKGRFTISRDNAKNTVYLQMNSLKPEDTAVYYCAAYSFAYRFNYWGQGTQVTVSS | high polyreactivity |
| QVQLVESGGGLVQAGGSLRLSCAASGRTFQKYAMGWYRQAPGKERELVAAITGSGGSTYYADSVKGRFTISRDIAKYTVYLQMNSLKPEDTAVYYCAAYAYGVWHSQDGGNYWGQGTLVTVSS | low polyreactivity |
| QVQLVESGGGFVQAGGSLRLSCAASVIFGYYAMGWYSQAPGKERELVAAINWRGDSTYYADSVKGRFTISRDNAKNTVYLQMNSLKPEDTAVYYCAAQRRDIALLYDYWGQGTQVTLSS | low polyreactivity |
| QVQLVESGAGLVQAGGSLRLCCAASGSTFTKNAMGLYRQAPGKERELVAAISWRDGSTYYADSVKGRFTISRDNAKNTVYLQMNSLKPEDTAVYYCNAVRRSFGKYPGLLDYDYWGQGTQVTVSS | high polyreactivity |
| QVQLVESGGGLVQAGGSLRLSCAASGRTFYYYAMGWYRQAPGKERELVASISRRGGSTYYADSVKGRFTISRDNAKNTVYLQMNSLKPEDTAVYYCAASHYHGYSLGYDYWGQGTQVTVSS | high polyreactivity |
| QVQLVESGGGLVQAGGRLRLSCAASGLTFLPNAMGWYRQAPGKERELVAAISWSDVRTYYADSVKGRFTISRDNAKNTVYLQMNSLKPEDTAVYYCAAEIYDLPEGDYWGQGTQVTVSS | high polyreactivity |
| QVQLVESGGGLVQAGGSLRLSCAASGSIFTGYAMGWYRQAPGKERELVAAISASGTRTYYADSVKGRFTISRDNAKNTVYLQMNSLKPEDTAVYYCARDSLQVFYPYASDDYWGQGTQVTVSS | low polyreactivity |
| QVQLVESGGGLVQAGGSLRLSCAASGSTFQYNVMGWYRPAPGKERELVATISYSSGRTYYADSVKGRFTISRDNAKNTVYLQMNSLKPEDTAVYYCAAAVRLYFWTSAYKYGYWGQGTQVTVSS | high polyreactivity |
| QVQLVESGGGLVQAGGSLRLSCAASGRIFRRYASGWYRQAPGKEMELDADITYGVDSTYYADSVKGRFTISRDNAKNTVYLQMNSLKPEDTAVYYCIADRTEDMLYRFVGVTYGYWGQGTQVTVSS | high polyreactivity |
| QVQLVESGGGLVQAGGSLRLSCAASGFTFWPNAMGWYRQAPGKERELVAAINWSGGSTYYADSVKGRFTISRDNAKYTVSLQKNSLKPEDTAVYYCAADYVTNITFDGFNKYDYWGQGTQVTVSS | low polyreactivity |
| QVQLVVSGGGLVQAGGSLRLSCAASGYIFYANAMGWYRQAPGKEWELVAAITQSGGRTYYADSVKGRFTISRDNAKNTVYLQMNSLKPEDTAVYYCAAQPWRALGYYYWGQGTQVTVSS | high polyreactivity |
| QVQHVESGGGLVQAGGSLRLSCAASGFIFTSYAMGWYRQAPGKERELVAVISASDGSTYYADSVKGRFTISRDNAKNTVYLQMNILKPEDTAVYYCNATEYLGGGGIVHVEFGYWGQGTQVTVSS | low polyreactivity |
| QVQLEESGGGLVQAGGSLRLSCASYGSTFTYNAMGLYIQAPAKERELVAVIRPGGTTNYADSVKGRFTISRDNAKNSVYLQMNSLKPVDTAVYYCAADVRRYDGYDYWGQGTQVTVSS | low polyreactivity |
| QVQLVESGGGLVKAGGSLRLSCAASGYNFIVYTMGWYRQAPGKERELVAAISSGGITDYADSVKGRFTISRDNAKNTDYLQMNSLNPEDTAVYYWGQGTQVTVSS | low polyreactivity |
| QDQLVESGGGLVQAGGSLRLICAASGNTLGYYAMVCYRQATGKERELVATISDDGTTYYADSVKGLFTISRDNAKNSVYLQMNSLKPEDTAVYYCATDGSAQYSMDYWGQGTQVTVSS | low polyreactivity |
| QVQLVESGGGLVQAGGILRLSCAASGRIFKTYAMGWYRQAPGKERELVAAITASGGRTYYADSVKGRFTISRDNAKNTVYLQMNSLKPEDTAVYYCAADSGNEYDYWGQGTQVTVSS | low polyreactivity |
| QVQLVESGGGLVQAGGSLRLSCAASGLTFYYYDMGWYRQAPGKERELVAAITTDGSTNYADSVKGRFTISRDNAKNTVYLQMNSLKPEDTAVYYCAADKYYRYNYWGQGTQVTVSS | high polyreactivity |
| QVQLVESGGGLVQAGGSLRLICAASGSTFTGYAMGWYRQAPGKERELVAAINWRGGTTYYADSVKGRFTISRDNAKNTVYLQMNSLKPEDTAVYYCNKYRISGLSKFYYWGQGTQVTVSS | high polyreactivity |
| QVQLVESGGGLVQAGGSLRLSCAASGITFFTYTMGWYRQAPGKERELVARIRWDGGSTYYADSVKGRFTISRDNAKNTVYLQMNSLKPEDTAVYYCAADYPYSTYDYWGQVTQVTVSS | low polyreactivity |

| Sequence | polyreactivity (PSR sort gate) |
| --- | --- |
| QVQLHESGGGLVQAGGGLRLSCAASGSISSTGFMGWYRQAPGKEREPVAAIAPGTTTYYADSVKGRFTISRDNAKNTVYLQMNSLRPEDTAVFYCAVFTDNRVSFRYWGQGTQVTVSS | low polyreactivity |
| QVQLVESVGGLVQAGGSLRLSCAASGIIFARYAMGWYRQAPGKERELVASISWSTGNTYYADSVKGRFTISRDNAKNTVYLQMNSLKPEDTAVYYCAATYRRKYWTMDYWGQGTQVTVSS | high polyreactivity |
| QVQLVESGGGLVQAGGSLRLSCSASGSTSFYNAIGWYRQAPGKERELVAAISWSTGSTYYADSVKGRFTISRDNAKNTVYLQMTSLKPEDTAVYYCAAETGKNVDFVWVLAYPRLDYWGQGTQVTVSS | low polyreactivity |
| QVQLVESGGGLVQAGGSLRLSCAASGRIYYAYTMGWYIQAPGKERELVAAISGSGSTYYADSVKGRFSISRDNAKNTVYLQMNSLKPEDTAVYYCAADVTGGRKYDYWGQGTQVTVSS | low polyreactivity |
| QVQLVESGGGLVQAGGSLRLSCAASGRTFGTNTMGWYRPAPGKERELVAAISRSGVRTYYADSVKGRFTISRDNAKNTVYLQMKSLKPEDTAVYYCATDYKVHGFDYWGQGTQVTVSS | high polyreactivity |
| QVQLVESGGGLVQAGGSLRLSCAASGRIFERYAMGWYRQEPGKERELVAGISISGGGTYYADSVKGRFTISRDNAKNTVYLQMNSLKPEDTAVYYCAGTFPREEYGYWGQGTQVTVSS | low polyreactivity |
| QVQLVESGGGLVQAGGSLRLSCAASGSTLNIYAMGWYRQAPGKERELVAAISWTDDTTYYADSVKGRFTISRDNAKNTVYLQMNSLKPEDTAVYYCAAEIYSWSDAQQYDYWGQGTQVTVSS | high polyreactivity |
| QVQLVESGGGLVQAGGSLRLSCAATGITFYPNGMGWYRPAPGKEREFVAAITSSGGSTYYADSVKGRFTISRDNAKNSVYLQMNSLKPEDTAVYYCAAQYYPISYYGYGYWGQGTQVTVSS | low polyreactivity |
| QVQLVESGGVLVQAGGSLRLICAASVRNFSTNSMGWYRQAPGKERELVASISFRGGRTYYADSVKGRFTISRDNAKNTVYLQMNSRKPEDNAVYYCVSGTKRTGYGYWGQGTQVTVSS | high polyreactivity |
| QVQLVESGGGLVQAGGSLRLSCAASGSTSRGYAMGWYRPAPGKERELVASITLSGGNTYYADSVKGRFTISRDSAKNTVYFQMYSLKPVDTAVYYCAADDRGSSYGHFTVEYGNWGQGTQVTVSS | low polyreactivity |
| QVQLVESGGGLVQEGGSLRLSCAASGSTFRHNAMGRYRQAPGKERELVAVITDGASTNYADSVKGRFTISRDNAKNTVYLQMNSLKPEDTAVYYCAAYHRGYYTGREYYYWGQGTQVTVSS | low polyreactivity |
| QVQLVESGGGLVQAGGSLRLSCAASGSTFRYYAMGWYRQSPGKEREFVAAITKVGSRTSYADSVKGRFTISRDNAKNTVYLQMNSLKPEDTAVYYCATRDSPRTKNGYYYWGQGTKVTVSS | high polyreactivity |
| QVQLVESGGGLVQAGGSLRLSCAASGRIFAYNTMGWYREAPGKERELVAVSTSGGSTNYADSVKGRFTISRDNAKNTVYLQMNSLKPEDSAVYYCAKRPYGRSGGSRYDYWGQGTQVTVSS | high polyreactivity |
| QVQLVESGGGLVQAGGSLRLSCASSGRTFRYNAMGWYIQAPGKESELVAAISRSGGRTYYADSVKGRFTISRDNAKNTVYLQMNSLKPEDTAVYYCAAYYYTAGDSSSRYDYWGQGTQVTVSS | high polyreactivity |
| QVQLVESGGGIVQAGGSLRLSCAASGSIFLYYAMGWYRQAPGNERQLVATINWSGGTTYYADSVKGRFTISRDNAKNTVYLQMNSLKPEDTAVYYCNKAKTAYRGQYDYWGQGTQVTVSS | high polyreactivity |
| QVQLVESGGGLVQAGGSLRLSCAASGRTFGLNAMGWYRQAPGKDRELVAAISSSGGSTYYADSVKGRFTISRDNAKNTVYLQKNSLKPEDTAVYYCAKGLYRYGTAYYYWGQGTQVTVSS | high polyreactivity |
| QVQHVESRGGLVQAGGSLRLSCAASGSIFGYYGMGWYRQAPGKERELVATITSGGSTNYADSVKGRFTISRDNAKNTVYLQMNSLKPEDTAVYYCARQYGYQPERYGYWGQGTQVTVSS | low polyreactivity |
| QFQLVESGGGLVQAGGSLRLSCAASGRTFTSNAMGWYRQAPGKERELVAAIDDGGSTNYADSVKGRFTISRDNAKNTVYLQMNSLKPEDTAVYYCATGYWELRYDYWGQGTQVTVSS | low polyreactivity |
| QVQLVESGGGLVQAGGSLRLSCAASGSIFPYNVMGWYRQAPGKERELVAVITGSTGRTYYADSVKGRFTISRDNAKNTVYLQMNSLKPEDTAVYYCAKRRYWAPYDYWGQGTQVTVSS | high polyreactivity |
| QVQLVESGGGLVQAGGSLRLICAASGFIITRNAMVWYRPAPGKERELGAVISYGGGSTYYADSVKGRFTISRDNAKNTVYLQMNSLKPEDTAVYYCAADPTWRYYYHYTYYYWGQGTQVTVSS | high polyreactivity |
| QVQLVESGGGLVHAGGSLRLSCAASGRIFGTNAMGWYIQAPGKERELVATITRGGGNTYYADSVKVRFTISRDHAMNTVDLQMNSLKPEDTAVYYCNVDYGVHVPPRDYWGQGTQVTVSS | low polyreactivity |
